Results published in publication PMC3240820.

Target: C-terminal His-tagged Caskin1 SAM mutant G520E (human) (UniProt Q8WXD9)
Assay: SPR

Sequence of C-terminal His-tagged Caskin1 SAM mutant G520E (human) (Q8WXD9 470-605 G520E): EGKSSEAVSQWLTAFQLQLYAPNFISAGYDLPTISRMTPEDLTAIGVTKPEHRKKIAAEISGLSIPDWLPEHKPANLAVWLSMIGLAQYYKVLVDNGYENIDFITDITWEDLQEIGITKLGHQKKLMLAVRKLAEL

Kd: 22 µM
Substance: Caskin1 SAM mutant G566K (from UniProt Q8WXD9 470-605) (domain or fragment)
